Data on two molecules can be found in patent CN111333732A (UNIV CHINA PHARMA, dated 2020).

Experiment [1] has as its target T1, BCMA-Fc蛋白 (human, UniProt Q02223 1-54).
T1 construct: Captured on a CM5 chip through anti-human Fc antibody for SPR; also called BCMA抗原; not shown: Fc part, captured by anti-human Fc antibody
T1 sequence (looked up): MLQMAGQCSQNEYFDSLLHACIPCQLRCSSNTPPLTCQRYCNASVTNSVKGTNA
As to the kind of experiment: SPR, Biacore X100, BCMA-Fc captured by anti-human Fc on CM5, 2A9 as analyte.

The target in experiment [2] is T1, BCMA-Fc蛋白. In words: SPR, Biacore X100, BCMA-Fc captured by anti-human Fc on CM5, 2A9-MICA as analyte. Background: In SPR one partner is held on a chip, and binding of the other changes the refractive index at the surface.
The target of a further experiment is T2, NKG2D-Fc蛋白 (UniProt P26718 78-216, limits assumed).
T2 construct: Captured on a CM5 chip through anti-human Fc antibody for SPR; not shown: Fc part, captured by anti-human Fc antibody
T2 sequence (looked up): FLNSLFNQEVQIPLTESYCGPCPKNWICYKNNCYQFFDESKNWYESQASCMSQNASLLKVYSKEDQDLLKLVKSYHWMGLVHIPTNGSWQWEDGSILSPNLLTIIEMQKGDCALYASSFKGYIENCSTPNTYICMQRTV
As to the kind of experiment: SPR, Biacore X100, NKG2D-Fc captured by anti-human Fc on CM5, 2A9-MICA as analyte.

B1: 抗人BCMA单链抗体2A9 (scFv)
scFv: ASMAEVQLQQSGAELVKPGASVKLSCTASGFNIKDTYMHWVKQRPEQGLEWIGRIDPANGNTKYDPKFQGKATITADTSSNTAYLQLSSLTSEDTAVYYCARWVYWGQGTTLTVSTGGGGSDVVMTQSPSSMYASLGERVTITCKASQDINSYLSWFQQKPGKSPKTLIYRANRLVDGVPSRFSGSGSGQDYSLTISSLEYEDMGIYYCLQYDEFPYTFGGGTKLEIKR
notes: Parental scFv from phage display; also called rG7S
In the experiment with BCMA-Fc蛋白 [1], B1 displayed a dissociation constant Kd of 34.6 nM. This lies in the double-digit nanomolar range.

B2: 双特异性抗体2A9-MICA (anti-human BCMA scFv 2A9 fused to human MICA extracellular regions 1-3) (bispecific antibody)
chain: MAEVQLQQSGAELVKPGASVKLSCTASGFNIKDTYMHWVKQRPEQGLEWIGRIDPANGNTKYDPKFQGKATITADTSSNTAYLQLSSLTSEDTAVYYCARWVYWGQGTTLTVSTGGGGSDVVMTQSPSSMYASLGERVTITCKASQDINSYLSWFQQKPGKSPKTLIYRANRLVDGVPSRFSGSGSGQDYSLTISSLEYEDMGIYYCLQYDEFPYTFGGGTKLEIKRGSGGGGSEPHSLRYNLTVLSWDGSVQSGFLAEVHLDGQPFLRYDRQKCRAKPQGQWAEDVLGNKTWDRETRDLTGNGKDLRMTLAHIKDQKEGLHSLQEIRVCEIHEDNSTRSSQHFYYDGELFLSQNLETEEWTVPQSSRAQTLAMNVRNFLKEDAMKTKTHYHAMHADCLQELRRYLESGVVLRRTVPPMVNVTRSEASEGNITVTCRASSFYPRNIILTWRQDGVSLSHDTQQWGDVLPDGNGTYQTWVATRICRGEEQRFTCYMEHSGNHSTHPVPSGKVLVLQSHW
notes: also called 抗体融合蛋白2A9-MICA; rG7S-MICA
For the molecule B2, the Kd with BCMA-Fc蛋白 [2] amounted to 76 nM; with NKG2D-Fc蛋白, 3470 nM.

As a reminder, the Kd is the free concentration of one partner at which half of the binding sites on the other are occupied at equilibrium, for simple one-to-one binding. A high value points to a looser complex.
